# Results: US20140348834A1 (published 2014)
# Where two headings read alike, the source gives them in different places.
# T1: rat IL-17A (rat, UniProt Q61453 18-150, limits assumed)
# T1 sequence (looked up): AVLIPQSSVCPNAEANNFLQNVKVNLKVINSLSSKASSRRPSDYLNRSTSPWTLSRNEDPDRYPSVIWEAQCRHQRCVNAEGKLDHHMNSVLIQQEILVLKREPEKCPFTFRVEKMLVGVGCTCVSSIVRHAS
# T2: rat IL-17A (rat, UniProt Q61453 18-150, limits assumed)
# T2 sequence (looked up): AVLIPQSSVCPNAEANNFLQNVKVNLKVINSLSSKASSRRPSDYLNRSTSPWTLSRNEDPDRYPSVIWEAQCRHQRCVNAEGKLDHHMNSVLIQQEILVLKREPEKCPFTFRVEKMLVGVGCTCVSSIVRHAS
# T3: mouse IL-17A (mouse, UniProt Q62386 26-158, limits assumed)
# T3 construct: also called MuIL-17A; murine IL17A HIS
# T3 sequence (looked up): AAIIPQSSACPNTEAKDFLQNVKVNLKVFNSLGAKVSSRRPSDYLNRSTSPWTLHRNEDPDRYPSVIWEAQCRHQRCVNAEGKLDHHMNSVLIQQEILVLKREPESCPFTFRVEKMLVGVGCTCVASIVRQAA
# T4: rat IL-17A (rat, UniProt Q61453 18-150, limits assumed)
# T4 sequence (looked up): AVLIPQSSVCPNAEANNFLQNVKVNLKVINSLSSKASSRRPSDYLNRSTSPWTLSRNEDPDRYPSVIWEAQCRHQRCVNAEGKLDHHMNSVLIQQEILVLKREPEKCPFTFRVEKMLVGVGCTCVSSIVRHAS
# T5: mouse IL-17A (mouse, UniProt Q62386 26-158, limits assumed)
# T5 construct: Purified recombinant protein in SPR; also called MuIL-17A; murine IL-17A
# T5 sequence (looked up): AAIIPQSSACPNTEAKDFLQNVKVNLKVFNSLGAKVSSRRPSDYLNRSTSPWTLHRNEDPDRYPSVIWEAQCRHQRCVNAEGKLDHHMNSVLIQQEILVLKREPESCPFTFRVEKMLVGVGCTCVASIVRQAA
# Experiments:
# [1] = biological target: T6, human IL-17A (human, UniProt Q16552 24-155); assay: cell-based or functional assay
# T6 sequence (Q16552 24-155 limits assumed): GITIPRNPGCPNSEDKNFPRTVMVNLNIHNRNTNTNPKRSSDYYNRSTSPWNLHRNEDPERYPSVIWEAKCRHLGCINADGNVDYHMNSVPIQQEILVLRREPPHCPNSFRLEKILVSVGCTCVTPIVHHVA
# [2] = biological target: cynomolgous monkey (cyno) IL-17A (cynomolgus monkey, UniProt A0A2K5TTB0 24-155); assay: cell-based or functional assay
# Chain of cynomolgous monkey (cyno) IL-17A (A0A2K5TTB0 entry or part of it): as the sequence (Q16552 24-155 limits assumed) above, with T3A, P8S, N34S, I77V, N78K, P104R counted along it
# [3] = biological target: T1, rat IL-17A; assay: cell-based or functional assay
# [4] = biological target: human IL-17A/F (human, UniProt Q16552 24-155; Q96PD4 31-163); assay: cell-based or functional assay
# Target sequence in this assay (Q16552 24-155 limits assumed, chain 1 of 2): as the sequence (Q16552 24-155 limits assumed) above
# Target sequence in this assay (Q96PD4 31-163 limits assumed, chain 2 of 2): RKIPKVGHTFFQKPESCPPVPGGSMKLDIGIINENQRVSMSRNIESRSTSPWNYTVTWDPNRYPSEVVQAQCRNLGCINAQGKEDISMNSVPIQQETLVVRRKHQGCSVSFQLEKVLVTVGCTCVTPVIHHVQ
# [5] = biological target: T6, human IL-17A; assay: ELISA, captured antibody, serially diluted biotin-IL-17 (Example 1.5.1)
# Experimental: The following protocol is used to characterize the binding of IL-17 antibodies to human IL-17 by enzyme-linked immunosorbent assay (ELISA). […] 1. Coat ELISA plate with 50 μl per well of Goat anti Mouse IgG-Fc at 2 ug/ml, overnight at 4° C. […] 2. Wash plate 3×PBS/Tween. […] 3. Add 50 μl Mab diluted to 1 μg/ml in PBS/0.1% BSA to appropriate wells. Incubate 1 hr at room temperature (RT). […] 4. Wash plate 3× with PBS/Tween. […] 5. Add 50 μl of serial diluted biotin-IL17 (human IL-17, IL-17A/F, cyno IL-17) to appropriate wells. Incubate 1 hr at room temperature (RT). […] 6. Wash plate 3× with PBS/Tween. […] 7. […] Incubate 1 hr at RT. […] 8. Wash plate 3× with PBS/Tween. […] 9. […] 10. Stop reaction with 50 μl 2N H₂SO₄. […] Read absorbance at 450 nm.
# [6] = biological target: T2, rat IL-17A; assay: SPR Biacore, captured binder
# Experimental: (§1) The binding of antibodies to purified recombinant human, cyno, rat, mouse, rabbit IL-17 and human IL-17A/F were determined by surface plasmon resonance-based measurements with a Biacore® 3000 instrument (Biacore® AB, Uppsala, Sweden) using running HBS-EP (10 mM HEPES [pH 7.4], 150 mM NaCl, 3 mM EDTA, and 0.005% surfactant P20) at 25° C. […] Approximately 5000 RU of goat anti-mouse or anti-human IgG (Fcγ) fragment specific polyclonal antibody (Pierce Biotechnology Inc, Rockford, Ill.) diluted in 10 mM sodium acetate (pH 4.5) was directly immobilized across a CM5 research grade biosensor chip using a standard amine coupling kit according to manufacturer's instructions and procedures at 25 μg/ml. Unreacted moieties on the biosensor surface were blocked with ethanolamine. Modified carboxymethyl dextran surface in flowcell 2 and 4 was used as a reaction surface. Unmodified carboxymethyl dextran without goat anti-mouse or anti-human IgG in flow cell 1 and 3 was used as the reference surface. For kinetic analysis, rate equations derived from the 1:1 Langmuir binding model were fitted simultaneously to association and dissociation phases of all eight injections (using global fit analysis) with the use of Biaevaluation 4.0.1 software. Purified antibodies were diluted in HEPES-buffered saline for capture across goat anti-mouse or anti-human IgG specific reaction surfaces. Antibodies to be captured as a ligand (25 μg/ml) were injected over reaction matrices at a flow rate of 5 μl/min. The association and dissociation rate constants, kon (unit M-1s-1) and koff (unit s-1) were determined under a continuous flow rate of 25 μl/min. Rate constants were derived by making kinetic binding measurements at ten different antigen concentrations ranging from 10 nM to 200 nM. The equilibrium dissociation constant (unit M) of the reaction between antibodies and recombinant purified IL-17 antigens was then calculated from the kinetic rate constants by the following formula: KD=koff/kon. Binding was recorded as a function of time and kinetic rate constants are calculated. In this assay, on-rates as fast as 10⁶ M⁻¹ s⁻¹ and off-rates as slow as 10⁻⁶ s⁻¹ can be measured.
# [7] = biological target: cyno IL-17A (cynomolgus monkey, UniProt A0A2K5TTB0 24-155); assay: SPR Biacore, captured binder
# Chain of cyno IL-17A (A0A2K5TTB0 entry or part of it): as the sequence (Q16552 24-155 limits assumed) above, with T3A, P8S, N34S, I77V, N78K, P104R counted along it
# Experimental: as §1
# [8] = biological target: T3, mouse IL-17A; assay: SPR Biacore, captured binder
# Experimental: as §1
# [9] = biological target: T7, rabbit IL-17A (rabbit); assay: SPR Biacore, captured binder
# T7 construct: also called RabIL-17A
# Experimental: as §1
# [10] = biological target: T8, human IL-17A (human, UniProt Q16552 24-155); assay: SPR Biacore, captured binder
# T8 construct: Purified recombinant; biotinylated in the ELISA; also called HuIL-17A; Hu IL-17A
# T8 sequence (Q16552 24-155 limits assumed): as the sequence (Q16552 24-155 limits assumed) above
# Experimental: as §1
# [11] = biological target: T9, human IL-17A/F (human, UniProt Q16552 24-155; Q96PD4 31-163); assay: SPR Biacore, captured binder
# T9 construct: Heterodimer of IL-17A and IL-17F, purified recombinant; also called HuIL-17A/F; Hu IL-17A/F
# T9 sequence (Q16552 24-155 limits assumed, chain 1 of 2): as the sequence (Q16552 24-155 limits assumed) above
# T9 sequence (Q96PD4 31-163 limits assumed, chain 2 of 2): as the sequence (Q96PD4 31-163 limits assumed, chain 2 of 2) above
# Experimental: as §1
# [12] = biological target: T10, human IL-17A (human, UniProt Q16552 24-155); assay: hIL17A ELISA
# T10 construct: Recombinant; biotinylated in the ELISA; also called hIL-17; hIL17A
# T10 sequence (Q16552 24-155): as the sequence (Q16552 24-155 limits assumed) above
# Experimental: The following protocol is used to characterize the binding of IL-17 antibodies to human IL-17 by enzyme-linked immunosorbent assay (ELISA). […] Coat ELISA plate with 50 μl per well of Goat anti Mouse IgG-Fc at 2 ug/ml, overnight at 4° C. […] Wash plate 3×PBS/Tween. […] Add 50 μl Mab diluted to 1 μg/ml in PBS/0.1% BSA to appropriate wells. Incubate 1 hr at room temperature (RT). […] Wash plate 3× with PBS/Tween. […] Add 50 μl of serial diluted biotin-IL17 (human IL-17, IL-17A/F, cyno IL-17) to appropriate wells. Incubate 1 hr at room temperature (RT). […] Wash plate 3× with PBS/Tween. […] Incubate 1 hr at RT. […] Wash plate 3× with PBS/Tween. […] Stop reaction with 50 μl 2N H₂SO₄. […] Read absorbance at 450 nm.
# [13] = biological target: T11, cynomolgus monkey IL-17A (cynomolgus monkey, UniProt A0A2K5TTB0 24-155); assay: cell-based or functional assay
# T11 sequence (A0A2K5TTB0 entry or part of it): as the sequence (Q16552 24-155 limits assumed) above, with T3A, P8S, N34S, I77V, N78K, P104R counted along it
# [14] = biological target: T10, human IL-17A; assay: cell-based or functional assay; remark: listed apart in the source
# [15] = biological target: T4, rat IL-17A; assay: cell-based or functional assay; remark: listed apart in the source
# [16] = biological target: T11, cynomolgus monkey IL-17A; assay: SPR (Biacore 3000), antibody captured by anti-Fc, antigen in solution;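 note: purified recombinant IL-17 antigens flowed over captured antibodies in HBS-EP buffer, global Langmuir one-to-one fit of association and dissociation phases, KD derived from koff over kon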
# [17] = biological target: T10, human IL-17A; assay: as above
# [18] = biological target: T4, rat IL-17A; assay: as above
# [19] = biological target: T5, mouse IL-17A; assay: as above
# [20] = biological target: T12, human IL-17A/F (human, UniProt Q16552 24-155; Q96PD4 31-163); assay: as above
# T12 construct: Recombinant; biotinylated in the ELISA; also called hIL-17A/F; HuIL-17A/F
# T12 sequence (Q16552 24-155, chain 1 of 2): as the sequence (Q16552 24-155 limits assumed) above
# T12 sequence (Q96PD4 31-163, chain 2 of 2): as the sequence (Q96PD4 31-163 limits assumed, chain 2 of 2) above
binder,measurement,setting,value
"IL17-B6-11 (antibody, V domains shown) VH: EVQLVQSGAEVKKPGSSVKVSCKASGGSFLSYGFSWVRQAPGQGLEWMGGITPFFGFADYAQKFQGRVTITADESTTTAYMELSGLTSDDTAVYYCAREPNDFWNGYYTTHHFDYWGQGTTVTVSS VL: DVVMTQSPDFQSVTPKEKVTITCRASQNIGSALHWYQQKPDQSPKLLIKYASQSISGVPSRFSGSGSGTDFTLTINGLEAEDAGTYYCHQSTSLPHTFGQGTKLDIKR","Potency (pM), IL-17-driven IL-6 production in HS27 cells",[1],20 pM
same,"Potency (pM), IL-17-driven IL-6 production in HS27 cells",[2],33 pM
same,"Potency (pM), IL-17 and TNF-induced IL-6 secretion from NIH3T3 cells",[3],6100 pM
same,"Potency (pM), IL-17-driven IL-6 production in HS27 cells",[4],71 pM
same,EC50,[5],0.058 nM
"IL17-B6-16 (antibody, V domains shown, also called pJP247 B6.1 #16VH / pJP248 B6.1 #16Vk) VH: EVQLVQSGAEVKMPGSSLKISCKASGGSFRGYGISWVRQAPGQGLEWMGGITPFFGWADYAQKFQGRVTITADESTTTAYMELSGLTSDDTAVYYCARDPNEFWNGYYDTHHFDYWGQGTTVTVSS VL: EIVLTQSPDFQSVTPKEKVTITCRASQDIGSALHWYQQKPDQSPKLLIKYASHSVSGVPSRFSGSGSGTDFTLTINGLEAEDAGTYYCHQSDILPHTFGPGTKVDIK","Potency (pM), IL-17-driven IL-6 production in HS27 cells",[1],26 pM
same,"Potency (pM), IL-17-driven IL-6 production in HS27 cells",[2],13 pM
same,"Potency (pM), IL-17 and TNF-induced IL-6 secretion from NIH3T3 cells",[3],167 pM
same,"Potency (pM), IL-17-driven IL-6 production in HS27 cells",[4],114 pM
same,EC50,[5],0.16 nM
"IL17-B6-5 (antibody, V domains shown, also called pJP243 B6.1 #5VH / pJP244 B6.1 #5VK) VH: EVQLVQSGAEVKKPGESVKISCKASGGSFRSYGISWVRQAPGQGLEWMGGITHFFGITDYAQKFQGRVTITADESTTTAYMELSGLTSDDTAVYYCAREPNDFWNGYYDTHDFDSWGQGTTVTVSS VL: EIVLTQSPDFQSVTPKEKVTITCRASQNIGSELHWYQQKPDQSPKLLIKYASHSISGVPSRFSGSGSGTDFTLTINGLEAEDAATYYCHQSDTLPHTFGQGTKVDIK",Kd,[6],0.00905 nM
same,koff,[6],5.54e-05 s⁻¹
same,kon,[6],6.12e+06 M⁻¹ s⁻¹
same,Kd,[7],0.00539 nM
same,koff,[7],6.52e-05 s⁻¹
same,kon,[7],1.21e+07 M⁻¹ s⁻¹
same,Kd,[8],0.0395 nM
same,koff,[8],0.000102 s⁻¹
same,kon,[8],2.58e+06 M⁻¹ s⁻¹
same,Kd,[9],0.00317 nM
same,koff,[9],2.23e-05 s⁻¹
same,kon,[9],7.03e+06 M⁻¹ s⁻¹
same,Kd,[10],0.00318 nM
same,koff,[10],2.29e-05 s⁻¹
same,kon,[10],7.2e+06 M⁻¹ s⁻¹
same,Kd,[11],0.00222 nM
same,koff,[11],2.95e-05 s⁻¹
same,kon,[11],1.33e+07 M⁻¹ s⁻¹
"IL17-B6-17 (antibody, V domains shown) VH: EVQLVQSGAEVKKPGSSVKVSCKASGGSFGGYGIGWVRQAPGQGLEWMGGITPFFGFADYAQKFQGRVTITADESTTTAYMELSGLTSDDTAVYYCARDPNEFWNGYYSTHDFDSWGQGTTVTVSS VL: EIVLTQSPDFQSVTPKEKVTITCRASQDIGSELHWYQQKPDQPPKLLIKYASHSTSGVPSRFSGSGSGTDFTLTINGLEAEDAGTYYCHQTDSLPYTFGPGTKVDIK",Kd,[6],0.00964 nM
same,koff,[6],5.91e-05 s⁻¹
same,kon,[6],6.13e+06 M⁻¹ s⁻¹
same,Kd,[7],0.00103 nM
same,koff,[7],1.05e-05 s⁻¹
same,kon,[7],1.02e+07 M⁻¹ s⁻¹
same,Kd,[8],0.113 nM
same,koff,[8],0.000169 s⁻¹
same,kon,[8],1.49e+06 M⁻¹ s⁻¹
same,Kd,[9],0.00351 nM
same,koff,[9],3.36e-05 s⁻¹
same,kon,[9],9.58e+06 M⁻¹ s⁻¹
same,Kd,[10],0.000785 nM
same,koff,[10],3.1e-06 s⁻¹
same,kon,[10],3.95e+06 M⁻¹ s⁻¹
same,Kd,[11],0.0017 nM
same,koff,[11],1.23e-05 s⁻¹
same,kon,[11],7.23e+06 M⁻¹ s⁻¹
"IL17-B6-15 (antibody, V domains shown, also called pJP245 B6.1 #15VH / pJP246 B6.1 #15Vk) VH: EVQLVQSGAEVKKPGESLKISCKASGGSFSGYGTSWVRQAPGQGLEWMGGITHFFGAVDYAQKFQGRVTITADESTTTAYMELSGLTSDDTAVYYCARDPNEFWNGYYATHDFDYWGQGTTVTVSS VL: EIVLTQSPDFQSVTPKEKVTITCRASQNIGAELHWYQQKPDQSPKLLIKYASHSISGVPSRFSGSGSGTDFTLTINGLEAEDAGTYYCHQTDRLPYSFGPGTKVDIK","Potency (pM), IL-17-driven IL-6 production in HS27 cells",[1],24 pM
same,"Potency (pM), IL-17-driven IL-6 production in HS27 cells",[2],10 pM
same,"Potency (pM), IL-17 and TNF-induced IL-6 secretion from NIH3T3 cells",[3],17 pM
same,"Potency (pM), IL-17-driven IL-6 production in HS27 cells",[4],162 pM
same,EC50,[5],0.13 nM
"IL17-h5C5.3 (antibody, V domains shown, IgG; constant regions not specified) VH: EVQLVQSGAEVKKPGASVKVSCKASGYTFTDYEFHWVRQAPGQGLEWIGVIHPGNGGTAYNQNFRDRATLTADKSTSTAYMELSSLRSEDTAVYYCTRFLTYEGYFDYWGQGTLVTVSS VL: NIVMTQTPKFLLVSPGDRVTITCKASQSVSIDVGWFQQKPGQSPKLLIYHASNRYTGVPDRFTGSGYGTDFTFTVNTVQAEDLAVYFCQQDYSSPYTFGGGTKLELKR",EC50,[12],1.37 nM
same,"Potency (pM), IL-17-driven IL-6 production in HS27 cells",[13],12 pM
same,"Potency (pM), IL-17-driven IL-6 production in HS27 cells",[14],5 pM
same,"Potency (pM), IL-17 and TNF-alpha-driven IL-6 production in NIH3T3 cells",[15],2520 pM
"m5C5.hIgG1 (antibody, V domains shown) VH: QVQLQQSGAELVRPGASVKLSCKALGYTFTDYEFHWVKQTPVHGLEWIGVIHPGNGGTAYNQNFRDKATLTADKSSSTAYMELSSLTSEDSGVYYCTRFLTYEGYFDYWGQGTALTVSS VL: NIVMTQTPKFLLVSPGDRVTITCKASQSVSIDVGWFQQKPGQSPKLLIYHASNRYTGVPDRFTGSGYGTDFTFTVNTVQAEDLAVYFCQQDYSSPYTFGGGTKLELKR","Potency (pM), IL-17-driven IL-6 production in HS27 cells",[14],11 pM
same,"Potency (pM), IL-17 and TNF-alpha-driven IL-6 production in NIH3T3 cells",[15],4910 pM
"IL17-h5C5.9 (antibody, V domains shown, IgG; constant regions not specified; also called h5C5.9 (VH.1b-Vk.1a)) VH: EVQLVQSGAEVKKPGASVKVSCKASGYTFTDYEFHWVRQAPGQGLEWIGVIHPGNGGTAYNQNFRDRATLTADKSTSTAYMELSSLRSEDTAVYYCTRFLTYEGYFDYWGQGTLVTVSS VL: DIQMTQSPSSLSASVGDRVTITCKASQSVSIDVGWFQQKPGKSPKLLIYHASNRYTGVPSRFSGSGSGTDFTFTISSLQPEDFATYFCQQDYSSPYTFGQGTKLEIKR",EC50,[12],0.03 nM
same,"Potency (pM), IL-17-driven IL-6 production in HS27 cells",[13],19 pM
same,"Potency (pM), IL-17-driven IL-6 production in HS27 cells",[14],14 pM
same,"Potency (pM), IL-17 and TNF-alpha-driven IL-6 production in NIH3T3 cells",[15],5680 pM
same,Kd,[16],0.228 nM
same,koff,[16],0.000239 s⁻¹
same,kon,[16],1.05e+06 M⁻¹ s⁻¹
same,Kd,[17],0.44 nM
same,koff,[17],0.000449 s⁻¹
same,kon,[17],1.02e+06 M⁻¹ s⁻¹
same,Kd,[18],8.48 nM
same,koff,[18],0.00958 s⁻¹
same,kon,[18],1.13e+06 M⁻¹ s⁻¹
same,Kd,[19],2.09 nM
same,koff,[19],0.000582 s⁻¹
same,kon,[19],279000 M⁻¹ s⁻¹
same,Kd,[20],1.21 nM
same,koff,[20],0.00115 s⁻¹
same,kon,[20],950000 M⁻¹ s⁻¹
